Results published in patent US20210070876A1 (LES LABORATOIRES SERVIER, published 2021).

What was measured:
[1] = target: T1, human CD73 expressed on cells (human, UniProt P21589 27-549); experiment: flow cytometry on CHO-S cells transiently expressing human CD73, AF647 anti-human IgG (H+L) secondary, GeoMean
T1 construct: also called 5'-NT; human CD73 on CHO-S cells
T1 sequence: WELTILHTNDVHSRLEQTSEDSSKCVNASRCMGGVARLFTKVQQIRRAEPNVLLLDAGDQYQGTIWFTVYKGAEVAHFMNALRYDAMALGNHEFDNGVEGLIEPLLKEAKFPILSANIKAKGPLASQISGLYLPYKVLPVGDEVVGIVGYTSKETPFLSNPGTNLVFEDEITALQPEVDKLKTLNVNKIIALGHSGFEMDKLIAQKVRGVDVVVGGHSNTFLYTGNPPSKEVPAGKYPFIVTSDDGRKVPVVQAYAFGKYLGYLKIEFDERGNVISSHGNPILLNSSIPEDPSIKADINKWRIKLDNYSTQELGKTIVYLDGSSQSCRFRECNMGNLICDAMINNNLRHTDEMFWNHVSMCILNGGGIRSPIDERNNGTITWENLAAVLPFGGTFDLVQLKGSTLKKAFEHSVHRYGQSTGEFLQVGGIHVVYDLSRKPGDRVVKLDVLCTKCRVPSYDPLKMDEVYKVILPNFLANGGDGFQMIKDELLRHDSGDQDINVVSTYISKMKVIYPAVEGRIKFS
Method: (§1) The anti-CD73 antibodies were incubated with the hamster CHO-S cell line transiently expressing human or cynomolgus CD73 for 30 minutes at 4° C. The cells were washed twice and subsequently incubated for an additional 20 minutes with AF647-conjugated secondary anti-human IgG (H+L) antibody. After the washing step, antibody binding was detected using the high-throughput flow cytometer iQue Screener PLUS (Sartorius) measuring the GeoMean of AF647 signal in each well. Every concentration was assayed in triplicate and a 12-point titration curve was generated for each antibody.

[2] = target: T2, His-tagged human CD73 ECD (human, UniProt P21589 27-549); experiment: SEC-MALS, mAb:CD73 0.1:1
T2 construct: runs as a homodimer of about 124-125 kDa in SEC-MALS; also called CD73-His; CD73-His ECD antigen
T2 sequence: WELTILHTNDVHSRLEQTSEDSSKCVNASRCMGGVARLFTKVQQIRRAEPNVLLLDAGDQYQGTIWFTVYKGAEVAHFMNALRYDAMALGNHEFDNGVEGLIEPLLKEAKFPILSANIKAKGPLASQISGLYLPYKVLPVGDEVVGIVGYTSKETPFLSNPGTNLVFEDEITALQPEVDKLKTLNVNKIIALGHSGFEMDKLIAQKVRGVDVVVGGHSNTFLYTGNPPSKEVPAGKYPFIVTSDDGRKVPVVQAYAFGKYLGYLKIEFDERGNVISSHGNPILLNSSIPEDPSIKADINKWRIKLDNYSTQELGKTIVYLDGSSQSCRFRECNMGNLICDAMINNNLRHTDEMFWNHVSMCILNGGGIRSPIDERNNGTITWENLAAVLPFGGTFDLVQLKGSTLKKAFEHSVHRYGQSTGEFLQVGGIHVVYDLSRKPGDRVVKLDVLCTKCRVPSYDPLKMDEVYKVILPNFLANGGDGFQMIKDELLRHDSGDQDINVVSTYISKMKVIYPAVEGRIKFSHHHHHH
Method: (§2) Anti-CD73 antibodies and His-tagged CD73 were analyzed in different ratios as well as individually to analyze the size of complexes formed between CD73 homodimer and anti-CD73 antibodies. Samples were prepared by mixing […] of CD73-His with 900, 450, 90 or 0 μmol of antibody diluted into PBS, pH 7.4. Samples were incubated for 30 min at room temperature followed by separation using a UHPLC UltiMate 3000 (Thermo Scientific) and SEC X-Bridge column (Waters) at a flow rate of 1.2 mL/min. Sample running buffer was 0.01 M Citrate, 250 mM L-Arginine.HCl, pH 6.0. Following HPLC separation, all samples were analyzed using a MiniDAWN TREOS MALS detector (Wyatt) and Optilab T-rEX refractive index detector (Wyatt). Data plots were generated using Graph Pad Prism.

[3] = target: T3, cynomolgus CD73 expressed on cells (cynomolgus monkey (Macaca fascicularis), UniProt A0A2K5V5U7 27-549); experiment: flow cytometry on CHO-S cells transiently expressing cynomolgus CD73, AF647 anti-human IgG (H+L) secondary, GeoMean
T3 construct: whole, on cells; also called cynomolgus CD73 on CHO-S cells; CD73 on Cynom-K1 cells
T3 sequence: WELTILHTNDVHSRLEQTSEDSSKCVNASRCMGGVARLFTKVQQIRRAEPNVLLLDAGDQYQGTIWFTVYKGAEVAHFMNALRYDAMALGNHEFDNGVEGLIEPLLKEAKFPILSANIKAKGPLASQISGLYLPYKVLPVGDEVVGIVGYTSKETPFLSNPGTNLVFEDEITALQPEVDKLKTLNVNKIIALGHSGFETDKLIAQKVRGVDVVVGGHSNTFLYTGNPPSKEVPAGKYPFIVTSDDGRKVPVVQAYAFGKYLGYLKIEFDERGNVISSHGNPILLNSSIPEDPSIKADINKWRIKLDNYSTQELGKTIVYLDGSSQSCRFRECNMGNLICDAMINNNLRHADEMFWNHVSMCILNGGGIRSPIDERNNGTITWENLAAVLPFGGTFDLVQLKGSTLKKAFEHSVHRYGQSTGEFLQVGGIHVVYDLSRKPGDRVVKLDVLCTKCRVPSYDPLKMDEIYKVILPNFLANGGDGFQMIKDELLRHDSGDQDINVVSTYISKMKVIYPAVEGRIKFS
Method: as §1

[4] = target: T2, His-tagged human CD73 ECD; experiment: SEC-MALS, mAb:CD73 1:1
Method: as §2

B1: antibody 21127 (antibody, human IgG1, kappa, L234A L235A, V domains shown)
VH: EVQLVESGGGLVQPGRSLRLSCAASGFTFDDFAMHWVRQAPGKGLEWVSGISWNSGNIGYADSVKGRFTISRDNAKNSLYLQMNSLRAEDTALYYCAKDKSGSPYYYYGMDVWGQGTMVTVSS
VL: DIQMTQSPSSVSASVGDRVTITCRATQGISRRLAWYQQKPGKAPKLLIYAASSLQSGVPSRFSGSGSGTDFTLTISSLQPEDFATYYCQQANSFPLTFGGGTKVEIKR
notes: Fully human IgG1-LALA (L234A/L235A), kappa
- EC50 (read off the curve) [1]: ~5 ng/mL
- molecular mass of complex, Peak 2 (MW, kDa) [2]: 282 kDa
- EC50 (read off the curve) [3]: ~4 ng/mL
- molecular mass of complex, Peak 2 (MW, kDa) [4]: 269 kDa
